{"source": "paper PMC4177747", "about": "“Derlin-1 Regulates Mutant VCP-Linked Pathogenesis and Endoplasmic Reticulum Stress-Induced Apoptosis” (PLoS Genetics, 2014)", "binders": {"B1": {"name": "Derlin-1 (endogenous, fly) (natural protein, Drosophila (endogenous in flies), UniProt Q9VQ57 1-245, looked up)", "chain": "MDAGVWYRSLPRFTRYWLTATVVLSMLCRFDVIPLHWLHLDRSAVFSKLQLWRCMTSLFVFPISSNTAFHFLINCFFIVQYSSKLEKDQYSRSPADYLYLLIVSAVLANIGGMIFNVYFLMDTLVLAITYIWCQLNKDVTVSFWFGTRFKAMYLPWVLAAFEFIFHFSLASLVGIFVGHVYYFFKFQYSQDLGGTPLLETPQFLKRLVPDVSGGFGGFGLPPESRAPPRQATESPWGRGMTLGRN", "notes": "Derlin-1, Drosophila, endogenous protein of about 27 kD (predicted 28.25 kD); also called endogenous Derlin-1; source: endogenous, whole fly lysate"}}, "target": "T1, TER94 (endogenous, the fly VCP homolog) (Drosophila (endogenous in flies), UniProt Q7KN62 1-801)", "T1 construct": "TER94, the Drosophila homolog of VCP, endogenous, detected with anti-VCP; also called TER94^WT; source: endogenous, whole fly lysate", "T1 sequence (Q7KN62 whole entry)": "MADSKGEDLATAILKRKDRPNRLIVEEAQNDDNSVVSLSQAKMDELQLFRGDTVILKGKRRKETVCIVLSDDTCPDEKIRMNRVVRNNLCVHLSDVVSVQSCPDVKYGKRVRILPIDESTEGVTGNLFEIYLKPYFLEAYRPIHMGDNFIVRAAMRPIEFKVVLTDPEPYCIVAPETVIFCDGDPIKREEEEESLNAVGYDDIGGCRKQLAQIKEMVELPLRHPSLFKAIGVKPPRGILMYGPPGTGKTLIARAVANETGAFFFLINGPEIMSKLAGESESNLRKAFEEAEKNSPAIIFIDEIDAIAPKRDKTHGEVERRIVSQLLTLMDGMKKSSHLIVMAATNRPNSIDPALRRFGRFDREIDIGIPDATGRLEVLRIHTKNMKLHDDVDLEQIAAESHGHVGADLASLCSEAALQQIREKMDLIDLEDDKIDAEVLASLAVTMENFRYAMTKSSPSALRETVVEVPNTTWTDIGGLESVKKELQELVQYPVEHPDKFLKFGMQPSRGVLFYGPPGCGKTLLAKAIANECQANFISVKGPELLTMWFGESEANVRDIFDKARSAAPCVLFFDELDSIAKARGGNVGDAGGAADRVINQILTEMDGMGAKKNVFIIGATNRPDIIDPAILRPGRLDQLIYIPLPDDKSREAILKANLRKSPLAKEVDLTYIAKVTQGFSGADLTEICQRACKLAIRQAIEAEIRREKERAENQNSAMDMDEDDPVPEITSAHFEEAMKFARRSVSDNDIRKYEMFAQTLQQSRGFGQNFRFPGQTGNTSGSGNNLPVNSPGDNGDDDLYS", "assay": "co-IP; anti-VCP on protein A-agarose; lysates of wild-type flies untreated or kept at 0°C for two hours and recovered for four hours at 25°C; blot with anti-VCP and anti-Derlin-1", "settings": "partners not purified"}
{"binder": "B1", "values": [{"measurement": "fold increase of the level of Derlin-1/TER94 complexes after cold treatment against untreated (normalised to TER94)", "value": "4.9 ± 0.98", "unit": "fold"}]}
